Measurements reported in paper PMC4772976 (EMBO Reports, 2016).

Biological target: His-Ub (UniProt P0CG48 1-76)
Experiment: pull-down

- binding result: binds
B1: GST-NAT10 RFL (RING finger-like, residues 456-558) (domain or fragment)
chain: SARTLYEVSLQESIRYAPGDAVEKWLNDLLCLDCLNITRIVSGCPLPEACELYYVNRDTLFCYHKASEVFLQRLMALYVASHYKNSPNDLQMLSDAPAHHLFC
